Experimental data published in IntAct's records for PubMed 29039417.

B1: BBSome complex member BBS5 (Homo sapiens), Q8N3I7 (parent)
chain: MSVLDALWEDRDVRFDLSAQQMKTRPGEVLIDCLDSIEDTKGNNGDRGRLLVTNLRILWHSLALSRVNVSVGYNCILNITTRTANSKLRGQTEALYILTKCNSTRFEFIFTNLVPGSPRLFTSVMAVHRAYETSKMYRDFKLRSALIQNKQLRLLPQEHVYDKINGVWNLSSDQGNLGTFFITNVRIVWHANMNDSFNVSIPYLQIRSIKIRDSKFGLALVIESSQQSGGYVLGFKIDPVEKLQESVKEINSLHKVYSASPIFGVDYEMEEKPQPLEALTVEQIQDDVEIDSDGHTDAFVAYFADGNKQQDREPVFSEELGLAIEKLKDGFTLQGLWEVMS
partner: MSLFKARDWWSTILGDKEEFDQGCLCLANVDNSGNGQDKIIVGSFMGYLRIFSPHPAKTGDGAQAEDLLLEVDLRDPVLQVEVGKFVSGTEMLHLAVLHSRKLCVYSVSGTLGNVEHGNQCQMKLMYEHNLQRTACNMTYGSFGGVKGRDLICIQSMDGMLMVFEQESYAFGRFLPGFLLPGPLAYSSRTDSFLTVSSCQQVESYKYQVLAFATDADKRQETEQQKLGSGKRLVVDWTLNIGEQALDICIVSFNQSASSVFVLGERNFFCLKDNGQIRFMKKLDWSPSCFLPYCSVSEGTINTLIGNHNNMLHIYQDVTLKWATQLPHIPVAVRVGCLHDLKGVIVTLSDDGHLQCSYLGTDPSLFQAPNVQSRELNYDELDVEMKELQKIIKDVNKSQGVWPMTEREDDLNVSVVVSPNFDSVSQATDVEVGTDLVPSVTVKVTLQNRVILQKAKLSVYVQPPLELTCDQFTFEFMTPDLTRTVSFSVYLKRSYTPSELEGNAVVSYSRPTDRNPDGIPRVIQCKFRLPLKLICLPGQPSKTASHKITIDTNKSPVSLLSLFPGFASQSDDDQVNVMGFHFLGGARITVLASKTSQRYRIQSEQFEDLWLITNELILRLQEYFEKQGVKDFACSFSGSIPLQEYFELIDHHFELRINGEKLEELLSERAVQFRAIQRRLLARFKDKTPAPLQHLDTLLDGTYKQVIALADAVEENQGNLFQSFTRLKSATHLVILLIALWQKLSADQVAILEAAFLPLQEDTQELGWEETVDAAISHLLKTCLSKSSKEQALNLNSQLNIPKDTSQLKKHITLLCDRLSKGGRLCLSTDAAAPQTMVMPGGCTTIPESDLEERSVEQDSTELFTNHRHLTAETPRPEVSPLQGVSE

Variants of: B1
Conditions: with pthb1_human BBS9, Q3SYG4

Row | Variant | effect of a mutation on the interaction
1 | MSVLDALWEDRDVRFDLSAQQMKTRPGEVLIDCLDSIEDTKGNNGDRGRLLVTNLRILWHSLALSRVNVSVGYNCILNITTRTANSKLRGQTEALYILTKCNSTRFEFIFTNLVPGSPRLFTSVMAVHRAYETSKMYRDFKLRSALIQNKQLRLLPQEHVYDKINGVWNLSSDQGNLGEFFITNVRIVWHANMNDSFNVSIPYLQIRSIKIRDSKFGLALVIESSQQSGGYVLGFKIDPVEKLQESVKEINSLHKVYSASPIFGVDYEMEEKPQPLEALTVEQIQDDVEIDSDGHTDAFVAYFADGNKQQDREPVFSEELGLAIEKLKDGFTLQGLWEVMS [T179E] | with no effect
2 | MSVLDALWEDRDVRFDLSAQQMKTRPGEVLIDCLDSIEDTKGNNGDRGRLLVTNLRILWHSLALSRVNVSVGYNCILNITTRTANSKLRGQTEALYILTKCNSTRFEFIFTNLVPGSPRLFTSVMAVHRAYETSKMYRDFKLRSALIQNKQLRLLPQEHVYDKINGVWNLSSDQGNLGAFFITNVRIVWHANMNDSFNVSIPYLQIRSIKIRDSKFGLALVIESSQQSGGYVLGFKIDPVEKLQESVKEINSLHKVYSASPIFGVDYEMEEKPQPLEALTVEQIQDDVEIDSDGHTDAFVAYFADGNKQQDREPVFSEELGLAIEKLKDGFTLQGLWEVMS [T179A] | with no effect
3 | MSVLDALWEDRDVRFDLSAQQMKTRPGEVLIDCLDSIEDTKGNNGDRGRLLVTNLRILWHSLALSRVNVSVGYNCILNITTRTANSKLRGQTEALYILTKCNSTRFEFIFTNLVPGSPRLFTSVMAVHRAYETSKMYRDFKLRSALIQNKQLRLLPQEHVYDKINGVWNLSSDEGNLGTFFITNVRIVWHANMNDSFNVSIPYLQIRSIKIRDSKFGLALVIESSQQSGGYVLGFKIDPVEKLQESVKEINSLHKVYSASPIFGVDYEMEEKPQPLEALTVEQIQDDVEIDSDGHTDAFVAYFADGNKQQDREPVFSEELGLAIEKLKDGFTLQGLWEVMS [Q174E] | with no effect
4 | MSVLDALWEDRDVRFDLSAQQMKTRPGEVLIDCLDSIEDTKGNNGDRGRLLVTNLRILWHSLALSRVNVSVGYNCILNITTRTANSKLRGQTEALYILTKCNSTRFEFIFTNLVPGSPRLFTSVMAVHRAYETSKMYRDFKLRSALIQNKQLRLLPQEHVYDKINGVWNLSSDKGNLGTFFITNVRIVWHANMNDSFNVSIPYLQIRSIKIRDSKFGLALVIESSQQSGGYVLGFKIDPVEKLQESVKEINSLHKVYSASPIFGVDYEMEEKPQPLEALTVEQIQDDVEIDSDGHTDAFVAYFADGNKQQDREPVFSEELGLAIEKLKDGFTLQGLWEVMS [Q174K] | with no effect
5 | MSVLDALWEDRDVRFDLSAQQMKTRPGEVLIDCLDSIEDTKGNNGDRGRLLVTNLRILWHSLALSRVNVSVGYNCILNITTRTANSKLRGQTEALYILTKCNSTRFEFIFTNLVPGSPRLFTSVMAVHRAYETSKMYRDFKLRSALIQNKQLRLLPQEHVYDKINGVWNLSSDQGNEGTFFITNVRIVWHANMNDSFNVSIPYLQIRSIKIRDSKFGLALVIESSQQSGGYVLGFKIDPVEKLQESVKEINSLHKVYSASPIFGVDYEMEEKPQPLEALTVEQIQDDVEIDSDGHTDAFVAYFADGNKQQDREPVFSEELGLAIEKLKDGFTLQGLWEVMS [L177E] | with no effect
6 | MSVLDALWEDRDVRFDLSAQQMKTRPGEVLIDCLDSIEDTKGNNGDRGRLLVTNLRILWHSLALSRVNVSVGYNCILNITTRTANSKLRGQTEALYILTKCNSTRFEFIFTNLVPGSPRLFTSVMAVHRAYETSKMYRDFKLRSALIQNKQLRLLPQEHVYDKINGVWNLSSDQGNKGTFFITNVRIVWHANMNDSFNVSIPYLQIRSIKIRDSKFGLALVIESSQQSGGYVLGFKIDPVEKLQESVKEINSLHKVYSASPIFGVDYEMEEKPQPLEALTVEQIQDDVEIDSDGHTDAFVAYFADGNKQQDREPVFSEELGLAIEKLKDGFTLQGLWEVMS [L177K] | with no effect
7 | MSVLDALWEDRDVRFDLSAQQMKTRPGEVLIDCLDSIEDTKGNNGDRGRLLVTNLRILWHSLALSRVNVSVGYNCILNITTRTANSKLRGQTEALYILTKCNSTRFEFIFTNLVPGSPRLFTSVMAVHRAYETSKMYRDFKLRSALIQNKQLRLLPQEHVYDKINGVWNLSSDQGNAGTFFITNVRIVWHANMNDSFNVSIPYLQIRSIKIRDSKFGLALVIESSQQSGGYVLGFKIDPVEKLQESVKEINSLHKVYSASPIFGVDYEMEEKPQPLEALTVEQIQDDVEIDSDGHTDAFVAYFADGNKQQDREPVFSEELGLAIEKLKDGFTLQGLWEVMS [L177A] | with no effect
8 | MSVLDALWEDRDVRFDLSAQQMKTRPGEVLIDCLDSIEDTKGNNGDRGRLLVTNLRILWHSLALSRVNVSVGYNCILNITTRTANSKLRGQTEALYILTKCNSTRFEFIFTNLVPGSPRLFTSVMAVHRAYETSKMYRDFKLRSALIQNKQLRLLPQEHVYDKINGVWNLSSDQKNLGTFFITNVRIVWHANMNDSFNVSIPYLQIRSIKIRDSKFGLALVIESSQQSGGYVLGFKIDPVEKLQESVKEINSLHKVYSASPIFGVDYEMEEKPQPLEALTVEQIQDDVEIDSDGHTDAFVAYFADGNKQQDREPVFSEELGLAIEKLKDGFTLQGLWEVMS [G175K] | with no effect
9 | MSVLDALWEDRDVRFDLSAQQMKTRPGEVLIDCLDSIEDTKGNNGDRGRLLVTNLRILWHSLALSRVNVSVGYNCILNITTRTANSKLRGQTEALYILTKCNSTRFEFIFTNLVPGSPRLFTSVMAVHRAYETSKMYRDFKLRSALIQNKQLRLLPQEHVYDKINGVWNLSSDQANLGTFFITNVRIVWHANMNDSFNVSIPYLQIRSIKIRDSKFGLALVIESSQQSGGYVLGFKIDPVEKLQESVKEINSLHKVYSASPIFGVDYEMEEKPQPLEALTVEQIQDDVEIDSDGHTDAFVAYFADGNKQQDREPVFSEELGLAIEKLKDGFTLQGLWEVMS [G175A] | with no effect
10 | MSVLDALWEDRDVRFDLSAQQMKTRPGEVLIDCLDSIEDTKGNNGDRGRLLVTNLRILWHSLALSRVNVSVGYNCILNITTRTANSKLRGQTEALYILTKCNSTRFEFIFTNLVPGSPRLFTSVMAVHRAYETSKMYRDFKLRSALIQNKQLRLLPQEHVYDKINGVWNLSSDQENLGTFFITNVRIVWHANMNDSFNVSIPYLQIRSIKIRDSKFGLALVIESSQQSGGYVLGFKIDPVEKLQESVKEINSLHKVYSASPIFGVDYEMEEKPQPLEALTVEQIQDDVEIDSDGHTDAFVAYFADGNKQQDREPVFSEELGLAIEKLKDGFTLQGLWEVMS [G175E] | with no effect
11 | MSVLDALWEDRDVRFDLSAQQMKTRPGEVLIDCLDSIEDTKGNNGDRGRLLVTNLRILWHSLALSRVNVSVGYNCILNITTRTANSKLRGQTEALYILTKCNSTRFEFIFTNLVPGSPRLFTSVMAVHRAYETSKMYRDFKLRSALIQNKQLRLLPQEHVYDKINGVWNLSSDQGELGTFFITNVRIVWHANMNDSFNVSIPYLQIRSIKIRDSKFGLALVIESSQQSGGYVLGFKIDPVEKLQESVKEINSLHKVYSASPIFGVDYEMEEKPQPLEALTVEQIQDDVEIDSDGHTDAFVAYFADGNKQQDREPVFSEELGLAIEKLKDGFTLQGLWEVMS [N176E] | with no effect
12 | MSVLDALWEDRDVRFDLSAQQMKTRPGEVLIDCLDSIEDTKGNNGDRGRLLVTNLRILWHSLALSRVNVSVGYNCILNITTRTANSKLRGQTEALYILTKCNSTRFEFIFTNLVPGSPRLFTSVMAVHRAYETSKMYRDFKLRSALIQNKQLRLLPQEHVYDKINGVWNLSSDQGKLGTFFITNVRIVWHANMNDSFNVSIPYLQIRSIKIRDSKFGLALVIESSQQSGGYVLGFKIDPVEKLQESVKEINSLHKVYSASPIFGVDYEMEEKPQPLEALTVEQIQDDVEIDSDGHTDAFVAYFADGNKQQDREPVFSEELGLAIEKLKDGFTLQGLWEVMS [N176K] | with no effect
13 | MSVLDALWEDRDVRFDLSAQQMKTRPGEVLIDCLDSIEDTKGNNGDRGRLLVTNLRILWHSLALSRVNVSVGYNCILNITTRTANSKLRGQTEALYILTKCNSTRFEFIFTNLVPGSPRLFTSVMAVHRAYETSKMYRDFKLRSALIQNKQLRLLPQEHVYDKINGVWNLSSDQGALGTFFITNVRIVWHANMNDSFNVSIPYLQIRSIKIRDSKFGLALVIESSQQSGGYVLGFKIDPVEKLQESVKEINSLHKVYSASPIFGVDYEMEEKPQPLEALTVEQIQDDVEIDSDGHTDAFVAYFADGNKQQDREPVFSEELGLAIEKLKDGFTLQGLWEVMS [N176A] | with no effect
14 | MSVLDALWEDRDVRFDLSAQQMKTRPGEVLIDCLDSIEDTKGNNGDRGRLLVTNLRILWHSLALSRVNVSVGYNCILNITTRTANSKLRGQTEALYILTKCNSTRFEFIFTNLVPGSPRLFTSVMAVHRAYETSKMYRDFKLRSALIQNKQLRLLPQEHVYDKINGVWNLSSDQGNLKTFFITNVRIVWHANMNDSFNVSIPYLQIRSIKIRDSKFGLALVIESSQQSGGYVLGFKIDPVEKLQESVKEINSLHKVYSASPIFGVDYEMEEKPQPLEALTVEQIQDDVEIDSDGHTDAFVAYFADGNKQQDREPVFSEELGLAIEKLKDGFTLQGLWEVMS [G178K] | with no effect
15 | MSVLDALWEDRDVRFDLSAQQMKTRPGEVLIDCLDSIEDTKGNNGDRGRLLVTNLRILWHSLALSRVNVSVGYNCILNITTRTANSKLRGQTEALYILTKCNSTRFEFIFTNLVPGSPRLFTSVMAVHRAYETSKMYRDFKLRSALIQNKQLRLLPQEHVYDKINGVWNLSSDQGNLATFFITNVRIVWHANMNDSFNVSIPYLQIRSIKIRDSKFGLALVIESSQQSGGYVLGFKIDPVEKLQESVKEINSLHKVYSASPIFGVDYEMEEKPQPLEALTVEQIQDDVEIDSDGHTDAFVAYFADGNKQQDREPVFSEELGLAIEKLKDGFTLQGLWEVMS [G178A] | with no effect
16 | MSVLDALWEDRDVRFDLSAQQMKTRPGEVLIDCLDSIEDTKGNNGDRGRLLVTNLRILWHSLALSRVNVSVGYNCILNITTRTANSKLRGQTEALYILTKCNSTRFEFIFTNLVPGSPRLFTSVMAVHRAYETSKMYRDFKLRSALIQNKQLRLLPQEHVYDKINGVWNLSSDQGNLRTFFITNVRIVWHANMNDSFNVSIPYLQIRSIKIRDSKFGLALVIESSQQSGGYVLGFKIDPVEKLQESVKEINSLHKVYSASPIFGVDYEMEEKPQPLEALTVEQIQDDVEIDSDGHTDAFVAYFADGNKQQDREPVFSEELGLAIEKLKDGFTLQGLWEVMS [G178R] | disrupting interaction strength
17 | MSVLDALWEDRDVRFDLSAQQMKTRPGEVLIDCLDSIEDTKGNNGDRGRLLVTNLRILWHSLALSRVNVSVGYNCILNITTRTANSKLRGQTEALYILTKCNSTRFEFIFTNLVPGSPRLFTSVMAVHRAYETSKMYRDFKLRSALIQNKQLRLLPQEHVYDKINGVWNLSSDQGNLETFFITNVRIVWHANMNDSFNVSIPYLQIRSIKIRDSKFGLALVIESSQQSGGYVLGFKIDPVEKLQESVKEINSLHKVYSASPIFGVDYEMEEKPQPLEALTVEQIQDDVEIDSDGHTDAFVAYFADGNKQQDREPVFSEELGLAIEKLKDGFTLQGLWEVMS [G178E] | disrupting interaction strength
